Target: T1, Fc-fused CD215 fragment
T1 construct: also called CD215 fragment in L-unit (fused with hIgG4Fc); CD215 fragment fused with Fc
Experiment: sandwich ELISA of the intact complex in mouse serum: one antibody captures the S-unit, the other detects the Fc portion

T1 sequence (chain, as listed by the source limits assumed): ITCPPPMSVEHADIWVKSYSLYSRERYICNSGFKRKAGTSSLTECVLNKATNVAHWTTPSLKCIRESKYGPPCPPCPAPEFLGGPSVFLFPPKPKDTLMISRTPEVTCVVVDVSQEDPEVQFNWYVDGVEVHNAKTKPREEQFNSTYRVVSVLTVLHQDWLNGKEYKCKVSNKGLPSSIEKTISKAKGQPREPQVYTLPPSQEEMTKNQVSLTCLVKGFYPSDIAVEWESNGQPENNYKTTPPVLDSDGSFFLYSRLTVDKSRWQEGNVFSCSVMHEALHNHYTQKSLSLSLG

binding result: binds
B1: S-unit molecule (PM619) (ligand)
chain: APTSSSTKKTQLQLEHLLLDLQMILNGIQSMHIDATLYTESDVHPSCKVTAMKCFLLELQVISLESGDASIHDTVENLIILANNSLSSNGNVTESGCKECEELEEKNIVEFLNRFITFAQSIISTLT
notes: also called IL-2/15 chimera; modified IL-2 molecule

Source: patent EP4741426A1 (Leto Laboratories Co., Ltd, dated 2026)
